Read-outs that look alike come from different tables or passages of the source.
Columns and labels:
[1] = test system: OC[C@H]1OC(O)[C@H](O)[C@@H](O)[C@@H]1O; assay: purified protein, by the assay type; conditions: other: BotGLD, D-glucose varied, Hanes-Woolf plot, DCIP/1-m-PMS, pH 6.0, 37° C.
Description: Each solution was mixed according to the following procedures to measure the absorbance, thereby examining GLD activity.
Then, 0.05 mL of an enzyme sample was added to the mixture to start a reaction. The amount (ΔA600) of reduction in light absorbance per minute at 600 nm along with the progress of the enzymatic reaction was measured for 5 minutes from the start of the reaction to calculate GLD activity from the straight line part according to the equation 1. At this time, in the measurement of GLD activity, the amount of an enzyme reducing 1 μmol of DCIP at 37° C. and a pH of 6.0 for one minute was defined as 1 U.
In the above formula, 3.0 represents the amount (mL) of reaction reagent+oxygen solution, 10.8 represents the molar absorption coefficient (mM^−1 cm^−1) of DCIP at a pH of 6.0, 1.0 represents the optical path length (cm) of a cell, 0.05 represents the amount (mL) of the oxygen solution, ΔA600 blank represents a reduction in the amount of light absorbance per minute at 600 nm when the solution used to dilute the enzyme is added in place of the enzyme solution to start a reaction, and df represents a dilution ratio.

[2] = test system: Botrytis fabae NBRC7171 flavin-binding glucose dehydrogenase BoGLD (D), purified, wild type; assay: Inhibitive effect of 1,10-phenanthroline, BoGLD; type: biochemical; conditions: methanol only = 0%
Description: (§1) The enzymatic activity of each of the purified GLDs (A) to (F) was measured when 1,10-phenanethroline dissolved in methanol was added such that its final concentration was 2 mM, 5 mM or 10 mM in the above method for measuring enzymatic activity. The inhibitive effect obtained when only methanol was added was defined as 0% to find the inhibitive effect of 1,10-phenanthroline at each concentration. The obtained results are shown collectively as the inhibitive effect of 1,10-phenanthroline in Table 4.

[3] = test system: Sclerotinia sclerotiorum NBRC103652 flavin-binding glucose dehydrogenase ScGLD (C), purified, wild type; assay: Inhibitive effect of 1,10-phenanthroline, ScGLD; type: biochemical; conditions: methanol only = 0%
Description: After the column was washed with the buffer solution C2, a protein was eluted with linear gradient of a buffer solution D3 (500 mM potassium phosphate buffer solution, pH 7.0) in the buffer solution C2.
as §1

[4] = test system: Dumontinia tuberosa NBRC30254 flavin-binding glucose dehydrogenase DuGLD (A), purified, wild type, SEQ ID NO: 2 (without signal sequence SEQ ID NO: 10); assay: Inhibitive effect of 1,10-phenanthroline, DuGLD; type: biochemical; conditions: methanol only = 0%
Description: as §1

[5] = test system: Ciborinia camelliae NBRC103663 flavin-binding glucose dehydrogenase CiGLD (F), purified from A. oryzae NS4 with CiGLD-Atsig modified gene, SEQ ID NO: …; assay: Inhibitive effect of 1,10-phenanthroline, CiGLD; type: biochemical; conditions: methanol only = 0%
Description: as §1

[6] = test system: Ovulinia azaleae NBRC6610 flavin-binding glucose dehydrogenase OvGLD (B), purified, wild type, SEQ ID NO: 6 (without signal sequence SEQ ID NO: 14); assay: Inhibitive effect of 1,10-phenanthroline, OvGLD; type: biochemical; conditions: methanol only = 0%
Description: as §1

[7] = molecular target: T1, Botrytis tulipae NBRC5896 flavin-binding glucose dehydrogenase BotGLD (E), purified from A. oryzae NS4 with BotGLD-Atsig modified gene, SEQ ID NO: 4 (without signal sequence SEQ ID NO: 12) (Botrytis tulipae, UniProt A0A4Z1FFJ6); assay: Inhibitive effect of 1,10-phenanthroline, BotGLD; type: biochemical
T1 construct: up to three extra N-terminal residues possible
Description: as §1

Substrate specificity = type: biochemical; conditions: 333 mM
From the text: As these substrates, maltose, D-galactose, D-fructose, sorbitol, lactose, sucrose, D-xylose, D-mannose and trehalose were used. When the activity to D-glucose was defined as 100%, the relative activity to each substrate was found. These relative activities are described collectively as the substrate specificity in Table 2.

[8] = Temperature characteristics; type: biochemical
Description: The relative activity at each temperature was calculated when the activities at 30 and 45° C. were each defined as 100%. In this case, each sample was measured twice in the same condition. An average of the measured relative activities is collectively described in Table 3.

[9] = substrate D-fructose, D-glucose = 100%
[10] = substrate D-galactose, D-glucose = 100%
[11] = substrate D-glucose (defined as 100%)
[12] = substrate D-mannose, D-glucose = 100%
[13] = substrate D-xylose, D-glucose = 100%
[14] = substrate lactose, D-glucose = 100%
[15] = substrate maltose, D-glucose = 100%
[16] = substrate sorbitol, D-glucose = 100%
[17] = substrate sucrose, D-glucose = 100%
[18] = substrate trehalose, D-glucose = 100%

Molecule: Botrytis tulipae NBRC5896 flavin-binding glucose dehydrogenase BotGLD (E), purified from A. oryzae NS4 with BotGLD-Atsig modified gene, SEQ ID NO: 4 (without signal sequence SEQ ID NO: 12) (Botrytis tulipae)
- Km [1]: 36.2 mM

Molecule: c1cnc2c(c1)ccc1cccnc12 [1,10-phenanthroline]
- Inhibitive effect ([2]; final concentration 2 mM): 10.4%
- Inhibitive effect ([2]; final concentration 5 mM): 15.9%
- Inhibitive effect ([2]; final concentration 10 mM): 28.5%
- Inhibitive effect ([3]; final concentration 2 mM): 5.28%
- Inhibitive effect ([3]; final concentration 5 mM): 18.4%
- Inhibitive effect ([3]; final concentration 10 mM): 32.3%
- Inhibitive effect ([4]; final concentration 2 mM): 20.4%
- Inhibitive effect ([4]; final concentration 5 mM): 30.1%
- Inhibitive effect ([4]; final concentration 10 mM): 42.3%
- Inhibitive effect ([5]; final concentration 2 mM): 6.34%
- Inhibitive effect ([5]; final concentration 5 mM): 14.7%
- Inhibitive effect ([5]; final concentration 10 mM): 32.7%
- Inhibitive effect ([6]; final concentration 2 mM): 34.1%
- Inhibitive effect ([6]; final concentration 5 mM): 51.7%
- Inhibitive effect ([6]; final concentration 10 mM): 65.1%
- inhibition at 2000 µM ([7]; BotGLD, final concentration 2 mM, methanol only = 0%, read-out: Inhibitive effect): 33.5%
- inhibition at 5000 µM ([7]; BotGLD, final concentration 5 mM, methanol only = 0%): 38.6%
- inhibition at 10000 µM ([7]; BotGLD, final concentration 10 mM, methanol only = 0%): 75.4%
- inhibition at 2000 µM ([7]; DuGLD, OvGLD and BotGLD together, 2 mM, read-out: Inhibitive effect (summary range)): 20 to 34%

B1: CiGLD: purified enzyme of GLD derived from the genus Ciborinia, produced in A. oryzae NS4 carrying the CiGLD-Atsig modified gene (protein, listed as Ciborinia camelliae)
chain: MHRFLPAFVLASLAAASQDVALTYDYVIVGAGTSGLVTAHRLSELADVTVAVIEAGESNYNNANVTNPAGYGLAFGTQIDWQYQTTVQEYGGDVTKVIRAGKSIGGTSTINGMAYTRAEDVQVDAWEALGNEGWNWANMLPYYKKSQTLQVPTEAQAALGAHYDPASNGYEGPLKVGWVNAMATDDFHTILNETYAALDVPANNDVNTGKMIGYTRYPATYDRTLNMRCDAGRAYYYPIQNRTNLHLYPNTMAQRLTWKSGASTPTAEGVEVLADGETTPYTIHASSEVIISAGALGSPLVLEHSGIGNPAILEKYNISVVVDLPTVGENLQDQTNTALGFDTSSDNVTYSAVSTYLGYPSAAQMFGSDFKTVAAEILAALPSYADKVAIASGNVTKAADLLKFFKIQYELIFSATSPVPVAELLVTPVGTTYSAEFWSLLPFSRGNIHISSATPGVAATINPNYFMLDYDMISQVRSAKYIREIFATTPLSPLVGSETTPGLDSIASAATEAEWAAWVKTAYRSNFHPVATAAMMPREIGGVVDSRLKVYGTTNVRVVDASILPMQVCGHLTSTLYAMSERAADLIKEDM
modifications: CDS (1)..(1776); sig_peptide (1)..(57)
notes: purified enzyme of GLD derived from the genus Ciborinia, produced in A. oryzae NS4 carrying the CiGLD-Atsig modified gene
- Relative activity (Substrate specificity; [9]): 0.49%
- Relative activity (Substrate specificity; [10]): 10%
- Relative activity (Substrate specificity; [11]): 100%
- Relative activity (Substrate specificity; [12]): 23%
- Relative activity (Substrate specificity; [13]): 25%
- Relative activity (Substrate specificity; [14]): 0.21%
- Relative activity (Substrate specificity; [15]): 6.4%
- Relative activity (Substrate specificity; [16]): 0.38%
- Relative activity (Substrate specificity; [17]): 0.40%
- Relative activity (Substrate specificity; [18]): 20%

B2: DuGLD: purified enzyme of flavin-binding GLD derived from the genus Dumontinia (Dumontinia tuberosa NBRC30254) (protein, listed as Dumontinia tuberosa)
chain: MNHLLPAFALASLAVASPDLSLTYDYVIVGAGTSGLVIANRLSELNVTVAVIEAGDSGYNNVNVTNPAGYGLAFGTDIDWAYQSTNQKYAGNATQTLRAGKVIGGTSTINGMAYTRAEDVQIDAWAALGNDGWNWENLFPYYKKSQTLQAPTAAQAEAGATYDPSANGFDGPLKVGWLKSLANDDFHIILNDTYASLGIFANEDVNTGRMVGYNRYPVTYDETLNVRHDAGRAYYYPIANRTNLHLYPNTMAQRLTWKSGADVPTANGVEVLTNNSSIPYTISANSEVILSAGALASPLLLELSGIGNPSLLNKYNIPVVVDLPTVGENLQDQTNNGLAYTVSKDASFSGVGTLVTYPSAAQVFGSEIQNISAHVLDSLPSYAAQVSAASGNVTKAADLLEFFKIQHDLIFSTTHPVPMAEILVIPSATGFKSEYWALLPFARGNIHITSSIPGTPAAINPNYYMLDWDITSQITTAKFIRSVYATSPLSTLVGSETKPGLETLSANATEAEWSEWIKAGYRPNFHPVSTAAMMPREVGGVVDSRLKVYGTSNVRVVDASVLPMQVSGHLVSTLYAVAERAADLIKEDI
modifications: CDS (1)..(1770); sig_peptide (1)..(57)
- Relative activity ([8]; 10° C., substrate 10 mM, 100% at 30° C.): 60.6%
- Relative activity ([8]; 10° C., substrate 10 mM, 100% at 45° C.): 60.1%
- Relative activity ([8]; 10° C., substrate 50 mM, 100% at 30° C.): 56.0%
- Relative activity ([8]; 10° C., substrate 50 mM, 100% at 45° C.): 50.5%
- Relative activity ([8]; 20° C., substrate 10 mM, 100% at 30° C.): 81.5%
- Relative activity ([8]; 20° C., substrate 10 mM, 100% at 45° C.): 80.7%
- Relative activity ([8]; 20° C., substrate 50 mM, 100% at 30° C.): 77.9%
- Relative activity ([8]; 20° C., substrate 50 mM, 100% at 45° C.): 70.3%
- Relative activity ([8]; 30° C., substrate 10 mM, 100% at 30° C.): 100%
- Relative activity ([8]; 30° C., substrate 10 mM, 100% at 45° C.): 99.1%
- Relative activity ([8]; 30° C., substrate 50 mM, 100% at 30° C.): 100%
- Relative activity ([8]; 30° C., substrate 50 mM, 100% at 45° C.): 90.2%
- Relative activity ([8]; 40° C., substrate 10 mM, 100% at 30° C.): 108%
- Relative activity ([8]; 40° C., substrate 10 mM, 100% at 45° C.): 107%
- Relative activity ([8]; 40° C., substrate 50 mM, 100% at 30° C.): 109%
- Relative activity ([8]; 40° C., substrate 50 mM, 100% at 45° C.): 98.6%
- Relative activity ([8]; 45° C., substrate 10 mM, 100% at 30° C.): 101%
- Relative activity ([8]; 45° C., substrate 10 mM, 100% at 45° C.): 100%
- Relative activity ([8]; 45° C., substrate 50 mM, 100% at 30° C.): 111%
- Relative activity ([8]; 45° C., substrate 50 mM, 100% at 45° C.): 100%
- Relative activity ([8]; 50° C., substrate 10 mM, 100% at 30° C.): 87.5%
- Relative activity ([8]; 50° C., substrate 10 mM, 100% at 45° C.): 86.7%
- Relative activity ([8]; 50° C., substrate 50 mM, 100% at 30° C.): 105%
- Relative activity ([8]; 50° C., substrate 50 mM, 100% at 45° C.): 94.4%
- Relative activity (Substrate specificity; [9]): < 0.1%
- Relative activity (Substrate specificity; [10]): 0.28%
- Relative activity (Substrate specificity; [11]): 100%
- Relative activity (Substrate specificity; [12]): 1.7%
- Relative activity (Substrate specificity; [13]): 10%
- Relative activity (Substrate specificity; [14]): < 0.1%
- Relative activity (Substrate specificity; [15]): 0.54%
- Relative activity (Substrate specificity; [16]): < 0.1%
- Relative activity (Substrate specificity; [17]): < 0.1%
- Relative activity (Substrate specificity; [18]): 1.0%

B3: BotGLD: purified enzyme of GLD derived from Botrytis tulipae, produced in A. oryzae NS4 carrying the BotGLD-Atsig modified gene (protein, listed as Botrytis tulipae)
chain: MYRLLSTFALASLAAASTDSTLTYDYIVIGAGTSGLVIANRLSELNVTVAVIEAGDSGYNNPNVTNPSGYGLSFGTDIDWAYQSTNQKYAGNTSQVLRAGKIIGGTSTINGMAYTRAEDVQIDAWAAIGNDGWNWANLFPYYKKSQTLEIPTTAQVEAGAAYDASANGFDGPLKVGWLNSLEDTSNFHTTLNDTFAGLGVPSNDDVNTGRMVGYSRYPATYDRTLNVRHDAGRAYYYPIANRTNLHLYPNTMAQRLTWTSDANTPTANGVEVLSNNSSIPYTIHANSEVILSAGALASPLLLELSGIGNPSILSKHNISVVVDLPTVGENLQDQTNTGLAYNSSGNTSFSGAGTLVAYPSAAQLFGSEVQKISAHVLQSLPSYAAQVSAASGNITKAADLLKFFKIQHDLIFSTTHPVPMAEILISPSATAFSSEYWALLPFARGSIHITSSVAGTPAAINPNYFMFDWDVTSQIATAKFIRSIYAASPLSSFVGSETKPGLNKVSANATEAEWFDWVKTAYRSNFHPVSTAAMMPREIGGVVDSRLKVYGTANVRVVDASILPMQVSGHLVSTLYAVAERAADLIKEDI
modifications: CDS (1)..(1773); sig_peptide (1)..(57)
notes: purified enzyme of GLD derived from Botrytis tulipae, produced in A. oryzae NS4 carrying the BotGLD-Atsig modified gene
- Relative activity (Substrate specificity; [9]): < 0.1%
- Relative activity (Substrate specificity; [10]): 0.76%
- Relative activity (Substrate specificity; [11]): 100%
- Relative activity (Substrate specificity; [12]): 8.2%
- Relative activity (Substrate specificity; [13]): 20%
- Relative activity (Substrate specificity; [14]): < 0.1%
- Relative activity (Substrate specificity; [15]): 1.5%
- Relative activity (Substrate specificity; [16]): < 0.1%
- Relative activity (Substrate specificity; [17]): < 0.1%
- Relative activity (Substrate specificity; [18]): 10%

Source: patent publication US8945359B2, “Flavin-binding glucose dehydrogenase” (Ikeda Food Research Co., Ltd., priority 2011, dated 2015)
